# T1: human C2 D417A (human, UniProt P06681 21-752)
# T1 sequence: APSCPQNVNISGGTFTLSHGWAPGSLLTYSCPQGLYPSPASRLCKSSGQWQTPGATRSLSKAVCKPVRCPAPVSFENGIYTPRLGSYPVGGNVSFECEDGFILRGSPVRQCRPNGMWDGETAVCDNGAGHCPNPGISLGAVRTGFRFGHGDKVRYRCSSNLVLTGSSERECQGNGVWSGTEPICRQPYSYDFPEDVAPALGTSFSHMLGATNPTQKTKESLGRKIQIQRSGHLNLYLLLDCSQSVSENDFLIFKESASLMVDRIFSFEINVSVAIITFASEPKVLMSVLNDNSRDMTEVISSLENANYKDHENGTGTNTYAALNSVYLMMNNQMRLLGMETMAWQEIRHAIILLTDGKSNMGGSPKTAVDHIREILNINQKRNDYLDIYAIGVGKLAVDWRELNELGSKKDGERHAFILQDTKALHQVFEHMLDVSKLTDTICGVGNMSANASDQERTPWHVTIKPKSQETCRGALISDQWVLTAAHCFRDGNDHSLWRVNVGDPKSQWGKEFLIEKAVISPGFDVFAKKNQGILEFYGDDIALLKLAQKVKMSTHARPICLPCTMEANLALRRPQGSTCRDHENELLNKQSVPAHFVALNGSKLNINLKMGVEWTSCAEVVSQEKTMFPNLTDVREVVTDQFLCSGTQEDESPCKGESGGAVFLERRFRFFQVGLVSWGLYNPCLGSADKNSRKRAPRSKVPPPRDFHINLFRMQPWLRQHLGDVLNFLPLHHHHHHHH
# T2: human C2 Q489A (human, UniProt P06681 21-752)
# T2 sequence: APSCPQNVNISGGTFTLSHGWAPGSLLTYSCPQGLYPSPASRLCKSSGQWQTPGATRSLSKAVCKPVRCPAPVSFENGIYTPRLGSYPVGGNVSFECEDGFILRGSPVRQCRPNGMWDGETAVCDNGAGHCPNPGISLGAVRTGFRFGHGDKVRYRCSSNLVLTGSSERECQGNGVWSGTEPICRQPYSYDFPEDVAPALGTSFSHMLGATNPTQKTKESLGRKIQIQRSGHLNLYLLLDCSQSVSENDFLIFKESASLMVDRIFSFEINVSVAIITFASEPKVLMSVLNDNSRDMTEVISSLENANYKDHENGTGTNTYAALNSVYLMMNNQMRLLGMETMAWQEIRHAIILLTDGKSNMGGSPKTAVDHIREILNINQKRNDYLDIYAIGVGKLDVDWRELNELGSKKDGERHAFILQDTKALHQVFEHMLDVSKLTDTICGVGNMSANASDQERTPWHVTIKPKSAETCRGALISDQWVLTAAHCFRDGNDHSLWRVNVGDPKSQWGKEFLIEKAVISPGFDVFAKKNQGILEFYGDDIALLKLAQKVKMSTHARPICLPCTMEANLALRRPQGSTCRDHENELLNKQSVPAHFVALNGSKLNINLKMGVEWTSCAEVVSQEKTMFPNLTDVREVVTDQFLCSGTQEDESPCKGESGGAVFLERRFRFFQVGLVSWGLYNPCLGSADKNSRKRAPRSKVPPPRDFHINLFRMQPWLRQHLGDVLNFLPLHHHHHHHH
# T3: human C2 S278A (human, UniProt P06681 21-752)
# T3 sequence: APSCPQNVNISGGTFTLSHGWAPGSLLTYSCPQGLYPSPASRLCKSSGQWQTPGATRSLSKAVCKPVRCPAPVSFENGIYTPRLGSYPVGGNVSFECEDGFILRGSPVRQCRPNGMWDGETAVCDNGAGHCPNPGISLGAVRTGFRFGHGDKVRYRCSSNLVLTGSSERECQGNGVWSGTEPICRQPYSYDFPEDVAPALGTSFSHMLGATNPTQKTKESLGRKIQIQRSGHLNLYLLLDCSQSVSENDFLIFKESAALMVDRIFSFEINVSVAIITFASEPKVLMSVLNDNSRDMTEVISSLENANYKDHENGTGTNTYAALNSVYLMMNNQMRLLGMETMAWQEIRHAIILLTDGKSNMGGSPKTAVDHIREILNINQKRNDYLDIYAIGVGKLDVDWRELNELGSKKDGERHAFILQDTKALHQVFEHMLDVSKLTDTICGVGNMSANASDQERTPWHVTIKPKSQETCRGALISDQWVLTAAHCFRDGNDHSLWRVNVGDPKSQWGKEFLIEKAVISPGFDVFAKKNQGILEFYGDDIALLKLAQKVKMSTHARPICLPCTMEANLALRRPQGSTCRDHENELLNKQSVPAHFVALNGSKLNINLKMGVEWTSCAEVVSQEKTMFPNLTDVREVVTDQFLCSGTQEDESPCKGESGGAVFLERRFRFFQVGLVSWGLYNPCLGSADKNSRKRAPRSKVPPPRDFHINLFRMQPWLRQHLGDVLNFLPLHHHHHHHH
# T4: human C2 M452A (human, UniProt P06681 21-752)
# T4 sequence: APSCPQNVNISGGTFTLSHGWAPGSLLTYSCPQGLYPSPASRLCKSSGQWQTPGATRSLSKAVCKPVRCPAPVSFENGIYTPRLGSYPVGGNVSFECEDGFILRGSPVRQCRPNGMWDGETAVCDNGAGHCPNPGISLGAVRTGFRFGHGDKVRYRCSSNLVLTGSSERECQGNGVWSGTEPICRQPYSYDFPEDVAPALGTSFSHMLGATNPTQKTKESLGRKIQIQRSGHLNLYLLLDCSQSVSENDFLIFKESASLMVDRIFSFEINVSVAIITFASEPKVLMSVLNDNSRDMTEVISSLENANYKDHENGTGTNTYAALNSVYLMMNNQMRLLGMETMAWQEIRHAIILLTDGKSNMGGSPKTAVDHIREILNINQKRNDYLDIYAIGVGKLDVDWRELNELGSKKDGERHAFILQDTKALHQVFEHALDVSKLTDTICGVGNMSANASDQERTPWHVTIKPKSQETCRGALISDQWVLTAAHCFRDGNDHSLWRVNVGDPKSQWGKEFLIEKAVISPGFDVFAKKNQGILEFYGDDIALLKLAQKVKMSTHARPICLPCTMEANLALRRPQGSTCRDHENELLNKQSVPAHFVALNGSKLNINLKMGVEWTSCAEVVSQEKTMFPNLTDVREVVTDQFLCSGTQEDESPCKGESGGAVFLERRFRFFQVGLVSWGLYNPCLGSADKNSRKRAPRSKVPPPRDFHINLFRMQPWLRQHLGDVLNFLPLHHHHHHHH
# Tests used:
# Experiment in all cases: SPR, antibody captured, C2 as analyte;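 note: biacore SPR at 37 °C, anti-C2 mAbs captured via goat anti-human IgG on CM5 chips, double-referenced sensorgrams fit to a 1:1 kinetic or steady-state model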
# [1] = target: T1, human C2 D417A
# Method: (§1) Surface plasmon resonance (SPR, Biacore) was used for all binding affinity analyses. In brief, goat anti-human IgG was directly immobilised onto the carboxymethyl dextran surface of CM5 sensorchips to approximately 12,000 RU using standard NHS/EDC chemistry at pH 5. The immobilised antibody surface was pre-conditioned with ten injections of polyclonal human IgG (Privigen 60 s) prepared at 1 μg/mL. Ligands (anti-C2 mAbs) were captured at the beginning of each cycle as described below. An adjacent spot or flow cell in which only Polyclonal IgG was capture was used as a reference surface. The goat anti-human IgG Fc antibody surface was regenerate in 100 mM H3PO4, injected for 45 seconds at the end of each cycle. Experiments were performed at 37° C. and the flow rate of each experiment was kept constant at 30 μL/min.
# (§2) Sensogram data was double-referenced against a reference anti-IgG surface (i.e. minus anti-C2 mAb) and blank buffer injections obtained within each experiment. The binding data was fit to 1:1 (kinetic or steady-state) model using local Rmax and null refraction index (RI=0) when appropriate. Buffers and solutions were filtered (0.22 μm) prior to use.
# [2] = target: T2, human C2 Q489A
# Method: as §1, §2
# [3] = target: T3, human C2 S278A
# Method: as §1, §2
# [4] = target: T4, human C2 M452A
# Method: as §1, §2
binder,measurement,setting,value
"RF16-226 (antibody, human IgG4 S228P, lambda, pH-dependent anti-C2 antibody from a phage display library; also called WT) heavy: not shown light: SYELTQPPSVSVSPGQTARITCSGDALTSKYVAWYQQKSGLAPLLVIYEDTRRPSGIPAKFSGSSSGSVATLTISGAHGDDEADYYCYSTDASGHQRVFGGGTKLTVLSQPKAAPSVTLFPPSSEELQANKATLVCLISDFYPGAVTVAWKADGSPVKAGVETTKPSKQSNNKYAASSYLSLTPEQWKSHRSYSCQVTHEGSTVEKTVAPTECS",Kd,[1],17.9 nM
same,Kd,[2],104 nM
same,Kd,[3],9.4 nM
same,Kd,[4],4.1 nM

# — US20220332804A1 (CSL INNOVATION, published 2022)
